Reference: the supplement of paper PMC7125110
± gives the standard error. Fewer inactive variants are shown than the library holds.

B1: glmS ribozyme (parent)
chain: AUAAAAGCGCCAGAACUACAGAAAUGUAGUUGACGAGGAGGAGGUUUAUCGAAUUUUCGGCGGAUGCCUCCAAA

How the values were obtained:
Conditions in all cases: with glucosamine-6-phosphate
[1] = variants of: B1; assay: self-cleavage kobs at 160 uM GlcN6P; higher = faster cleavage; RNA array
How it was run: (§1)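 Sequenced MiSeq chips were the platform: E. coli RNA polymerase transcribed barcoded ribozyme variants on them in situ, and a hybridised Cy3 probe tracked these at 37 °C. After glucosamine-6-phosphate (40 μM to 10 mM) in HEPES/KCl/Mg(OAc)2 buffer was flowed in, tiles were imaged over ~14 h. Signals normalised to baseline and to non-cleaving reference variants were reduced to per-tile medians and fit to one- or two-exponential decays to obtain kobs. kcat and KM were derived through weighted Michaelis–Menten fits across concentrations.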

[2] = variants of: B1; assay: self-cleavage kobs at 10000 uM GlcN6P; higher = faster cleavage; RNA array
How it was run: as §1

[3] = variants of: B1; assay: self-cleavage kobs at 640 uM GlcN6P; higher = faster cleavage; RNA array
How it was run: as §1

[4] = variants of: B1; assay: self-cleavage kobs at 2500 uM GlcN6P; higher = faster cleavage; RNA array
How it was run: as §1

| Variant | self-cleavage kobs at 160 uM GlcN6P [1] | self-cleavage kobs at 10000 uM GlcN6P [2] | self-cleavage kobs at 640 uM GlcN6P [3] | self-cleavage kobs at 2500 uM GlcN6P [4] |
| --- | --- | --- | --- | --- |
| AUAAAAGCGCCAGAACUACAGAAAUGUAGUUGUCGAGGAGGAGGUUUAUCGAAUUUUCGGCGGGUGCCUCCAAA [A33U A64G] | < 1e-05 s⁻¹ | 6.18e-05 ± 1.1e-05 s⁻¹ | – | – |
| AUAAAAGCGCUGGAACUACAGAAAUGUAGUUGAAGAGGAGGAGGUUUAUCGAAUUUUCGGCGGAUGCCUCCAAA [C11U A12G C34A] | – | – | < 1e-05 s⁻¹ | – |
| AUAAAAGCGCCAGAACUACAGAAAUGUAGUUGACUAGGGGGAAGUUUAUCGAAUUUUCGGCGGAUGCCUCCAAA [G35U A39G G43A] | – | – | < 1e-05 s⁻¹ | < 1e-05 s⁻¹ |
| AUAAAAGCGCUAGAACUACAGAAAUGUAGUUGACUAGGAGGAGGUUUAUCGAAUUUUCGGCGGAUGCGUACAAA [C11U G35U C68G C70A] | – | – | 0.000984 ± 0.00032 s⁻¹ | – |
| AUAAAAGCGCCAGAACUACAGAAAUGUAGUUGAAGAGGCGGAGGUUUAACGAAUCUUCGGCGGAUGCCUCCAAA [C34A A39C U49A U55C] | < 1e-05 s⁻¹ | – | – | – |
| AUAAAAGCGCCAGAACUACAGAAAUGUAGUUGACGAGGAGGCUGUUUAUCGAAUUUUCGGCGGAUGCCUUCAAA [A42C G43U C70U] | – | – | < 1e-05 s⁻¹ | < 1e-05 s⁻¹ |
| AUAAAAGCGCCGGAACUACAGAAAUGUAGUUGACGACGAGGAGGUUUAUCGAAUUUACGGCGGAUGCCUCCAAA [A12G G37C U57A] | – | – | < 1e-05 s⁻¹ | < 1e-05 s⁻¹ |
| AUAAAAGCGCCAGAACUACAGAAAUGUAGUUGUCGAGGAGGAGGUUUAUCUAAUUUUUGGCGGAUGCCUCCAAA [A33U G51U C58U] | < 1e-05 s⁻¹ | – | – | – |
| AUAAAAGCGCCAGAACUACAGAAAUGUAGUCGACGAGGAGGAGGUUUAUCGAAUUUUCGUCGCAUGCCUCCAAA [U31C G60U G63C] | – | – | < 1e-05 s⁻¹ | – |
| AUAAAAGCGCUAGAACUACAGAAAUGUAGUUGACGAGGAGCAGGUUUAUCGUAUUUUCGGCGGAUGCCUCCAAA [C11U G41C A52U] | < 1e-05 s⁻¹ | – | < 1e-05 s⁻¹ | < 1e-05 s⁻¹ |
| AUAAAAUCGCCAGAACUACAGAAAUGUAGUUGACGAGCAGGAGGUUUAUAGAAUUUUCGGCGGAUGCCUCCAAA [G7U G38C C50A] | < 1e-05 s⁻¹ | – | < 1e-05 s⁻¹ | – |
| AUAAAAGCGCCAGAACUACAGAAAUGUAAUUGACGCGGAGGAGGUUUAUCGAAUUUUCGGCGGAUGCCUCCAAA [G29A A36C] | – | < 1e-05 s⁻¹ | < 1e-05 s⁻¹ | < 1e-05 s⁻¹ |
| AUAAAAGCGCGAUAACUACAGAAAUGUAGUUGACGAGGAGGAGGUUUAUGGAAUUUUCGUGGGAUGCCUCCAAA [C11G G13U C50G G60U C61G] | – | – | 5.02e-05 ± 2.4e-05 s⁻¹ | – |
| AUAAAAGCGCCAGAACUACAGAAAUGUAUUUGAUGAGGAGGAGGUUUAUCGAAUAUUCGGCGGAUGCCUCCAAA [G29U C34U U55A] | – | – | < 1e-05 s⁻¹ | < 1e-05 s⁻¹ |
| AUAAAAGCGCCCGCACUACAGAAAUGUAGUGGACGAGGAGGAGGUUUAUCGAAUUUUCGGCGGAUGCCUCCAAA [A12C A14C U31G] | – | – | 0.00206 ± 0.00061 s⁻¹ | 0.00423 ± 0.0015 s⁻¹ |
| AUAAAAGCGCCAGAACUACAGAAAUGUAGUGAACGAGGAGGAGGUUUAUCGAAUUUUCGGCGGAUGCCUCCAAA [U31G G32A] | 2.88e-05 ± 1.4e-05 s⁻¹ | 0.00185 ± 0.00031 s⁻¹ | 0.000366 ± 7.2e-05 s⁻¹ | 0.000689 ± 0.00016 s⁻¹ |
| AUAAAAGCGCCAGAACUACAGAAAUGUACUUGACGAGGAGGAGGUUUACGUAAUUUUCGGCGGACGCCUCCAAA [G29C U49C C50G G51U U65C] | – | – | < 1e-05 s⁻¹ | < 1e-05 s⁻¹ |
| AUAAAAGCGCCAGAACUACAGAAAUGUAGUUGACGAGGGGGAGGUUUAUCGAAUUUUGGCCGGAUGCCUCCAAA [A39G C58G G60C] | – | < 1e-05 s⁻¹ | < 1e-05 s⁻¹ | < 1e-05 s⁻¹ |
| AUAAAGGCGCCAGAAUUACAGAAAUGUAGUUGACGAGGCGGAGGUUUAUCGAAUUUUCGGCGGAUGCCUCCAAA [A6G C16U A39C] | < 1e-05 s⁻¹ | 6.06e-05 ± 9e-06 s⁻¹ | – | – |

| Variant | self-cleavage kobs at 160 uM GlcN6P [1] | self-cleavage kobs at 10000 uM GlcN6P [2] | self-cleavage kobs at 640 uM GlcN6P [3] | self-cleavage kobs at 2500 uM GlcN6P [4] |
| --- | --- | --- | --- | --- |
| AUAAAAGCGCCAGAACUACAGAAAUGUAGUUGACGAGGAAGAGGUUUAUCAAAUAUUCGGCGGAUGCCUCCAAA [G40A G51A U55A] | – | – | < 1e-05 s⁻¹ | – |
| AUAAAUGCGCCAGAACUACAGAAAUGUAGUUGACGAGGAGGAGGUUUAUCGAAUUUUCGGCGGAUGCCGCCAAA [A6U U69G] | – | – | 0.000103 ± 2.3e-05 s⁻¹ | 4.72e-05 ± 1.4e-05 s⁻¹ |
| AUAAAAGCGCCAGAACUACAGAAAUGUACUUGACGUGGAGGACGUUUAUCGAAUUUUCGGCGGAUGCCUCCAAA [G29C A36U G43C] | < 1e-05 s⁻¹ | – | < 1e-05 s⁻¹ | – |
| AUAAAAGCGCCAGAACUACAGAAAUGUAGUUGACGAGAAGGAGGUUUAUCGAAUUUUCGGCGGGUGCCUCCAAA [G38A A64G] | < 1e-05 s⁻¹ | – | – | – |
| AUAAAAGCGCCAGAGCUACAGAAAUGUAAUUGACGAGGAGGCGGUUUAUCGAAUUUUCGGCGGAUGCCUCCAAA [A15G G29A A42C] | – | – | < 1e-05 s⁻¹ | – |
| AUAAAAGCGCCACAACUACAGAAAUGUAGUUGACGUGGAGGAGGUUUAUCGAAUUUUCGGCGGAUGCCUCCAAA [G13C A36U] | < 1e-05 s⁻¹ | < 1e-05 s⁻¹ | < 1e-05 s⁻¹ | < 1e-05 s⁻¹ |
| AUAAAAGCGCCAGACCUACAGAAAUGUAGUUGACGAGGAGGAGGUUUAUGGAAUUUUCGGCGGAUUCCUCCAAA [A15C C50G G66U] | 5.42e-05 ± 1.8e-05 s⁻¹ | – | – | – |
| AUAAAAGCGCCAGAACUACAGAAAUGUAGUUGACGAGGAGGAGGUUUAUCGAAUUUUCGGCGUCUGCCUCCAAA [G63U A64C] | < 1e-05 s⁻¹ | < 1e-05 s⁻¹ | < 1e-05 s⁻¹ | < 1e-05 s⁻¹ |
| AUAAAAGCGCCAGAACUACAGAAAUGUAGUUCACAUGGAGGAGGUUGAUCGAAUUGUCGGCGGAUGCCUCCAAA [G32C G35A A36U U47G U56G] | – | – | < 1e-05 s⁻¹ | < 1e-05 s⁻¹ |
| AUAAAAGCGCGAUAACUACAGAAAUGUAGUUGACGAGGAGGAGGCUUAUCGAAUUUUCGGCGGAUGCCUCCAAA [C11G G13U U45C] | < 1e-05 s⁻¹ | – | – | – |
| AUAAAAGCGCCAGAACUACAGAAAUGUAGUUGACAAGGAGGAUGUUUAUGGAAUUUUCGGCGGGUGCCUCCAAA [G35A G43U C50G A64G] | < 1e-05 s⁻¹ | – | – | – |
| AUAAAAGCGCCAGAACUACAGAAAUGUAGUUGACGGGGAGGAGGUUUAUCGAAUUUUAGACGGAUGCCUCCAAA [A36G C58A G60A] | < 1e-05 s⁻¹ | < 1e-05 s⁻¹ | < 1e-05 s⁻¹ | – |
| AUAAAAGCGCCAGCACUACAGAAAUGUAGUUGACGAGGAGGCGGUUUAUCGAAUUUUCGGCGGAUGCCUGCAAA [A14C A42C C70G] | < 1e-05 s⁻¹ | – | – | – |
| AUAAAAGCGCCAGAACUACAGAAAUGUAGUUGACGAGGAGAAGUUUUAUCGAAUUUUCGGCGGAUACCUCCAAA [G41A G44U G66A] | – | – | < 1e-05 s⁻¹ | < 1e-05 s⁻¹ |
| AUAAAAGCGCUAGAACUACAGAAAUGUAGUUGACGAGGAGGGGGUUUAUCGAAAUUUCGGCGGAUGCCUCCAAA [C11U A42G U54A] | 3.87e-05 ± 1.6e-05 s⁻¹ | – | 0.000886 ± 0.00027 s⁻¹ | – |
| AUAAAAGCGCCAGAAUUACAGAAAUGUAGUUGACGAGGAGGAGGUUAAUCGAGAUUUCGGCGGAUGCCUCCAAA [C16U U47A A53G U54A] | 0.00109 ± 0.00027 s⁻¹ | – | 0.00231 ± 0.00054 s⁻¹ | 0.00464 ± 0.00094 s⁻¹ |
| AUAAAAUCGCCAGAUCUACAGAAAUGUAGUUGACGAGGAGGAGGUUGAUCGAAUUUUCGGCGGAUGCCUCCAAA [G7U A15U U47G] | – | – | < 1e-05 s⁻¹ | – |
| AUAAAAGCGCCAGAACUACAGAAAUGUAGUUGACGAGGAGGAGGUUUAUCGUAUUUUCGCCGGAUGCCUCCAAA [A52U G60C] | < 1e-05 s⁻¹ | < 1e-05 s⁻¹ | < 1e-05 s⁻¹ | – |
| AUAAAAGCGCCAGUACUACAGAAAUGUAAUUGACGAGGAGGAGGUUUAUCGAAUUUUCGGCGUAUGCCUCCAAA [A14U G29A G63U] | < 1e-05 s⁻¹ | – | – | < 1e-05 s⁻¹ |
